B1: Pistol ribozyme (parent)
chain: GGGUCGUUGUUCCAUAAUCGCGUGGAUAUGGCACGCAAGUUUCUACCGGGCACCGUAAAUGUCCGACUGGAGCCGUUCGGGCGGCUAUAAACAGACCUCAGGCCCGAAGCGUGGCGGCACCUGCCGCCGGUGGUAAAAAAGAUCGGAAGAGCACACGUCU

The data set covers variants of B1. The data set can be described thus: aptazyme ON/OFF ratio, guanine; higher = stronger switching; co-transcriptional cleavage with and without guanine.
For U7A G9C U10A U11A C12G C13G, the “aptazyme ON/OFF ratio” value was determined as 1.1.
Next, G9C C12U C13G: 1.04; U8C G9A C12U C13G: 1.19; U8C G9A C12U C13U: 1.25.
Next, U7G U8C G9U U10G U11C C13A: 1.38; U10G U11C C13A: 1.05; U7C U8G G9A U10A U11G C12A C13U: 1.16.
As for U7G G9U U10G U11A C12U C13G, the figure is 1.17; as for U8C U10G U11C C12U C13G, 1.19; as for U7C U8C G9U U11G C12U C13A, 1.1.
Consider U7A U8G G9C U10C U11A C12U C13G, for which the “aptazyme ON/OFF ratio” value was found to be 1.18.
Next, U8G G9A U10C U11C C12G C13A: 1.09; U7G U8G G9A U10A U11G C12G C13G: 1.15; U7G U10C U11G C12G C13A: 1.11.
Consider U7A U8A G9A U10C U11A C12U, for which the “aptazyme ON/OFF ratio” value is 1.17.
In the case of U7C U8A G9C U10G C12A C13U, the “aptazyme ON/OFF ratio” value is 1.13.
On to U7A U8G G9A U10G C13U, for which the “aptazyme ON/OFF ratio” value turned out to be 1.31.
Next, U8G G9A U11C C12A C13A: 1.34.
Next, U8C U11G C13G: 1.06; U7C U8C G9A U10G U11G C12A: 1.23.
Next, U8A U10G C13A: 1.52; U7C U8A U10A C12G C13A: 1.32.
For U7C U8C G9A U11G C12U C13G, the “aptazyme ON/OFF ratio” value was 1.15.
Next, U7C U8C G9C U10A C12U: 1.26; U7A U8A G9A U10G U11C C13U: 1.03; G9C U11C C13A: 1.06.
As for U8G G9A U10A U11A C12U C13U, the figure is 1.21; as for U7A U8C U10A C12G C13U, 1.26.
Next, U8G G9C U10C U11A C12U: 1.06; U7G U8A G9C C12G: 1.01.
Take U7A U8A U10G U11C C12U C13U: the “aptazyme ON/OFF ratio” value came out at 1.47.
As for U7A U8A G9C U10C U11G C13G, the figure is 1.05; as for U7G U11C C12G, 1.26.
As for U7C U8A G9U U11A C12A C13G, the figure is 1.18; as for U7C U8C U10G U11C C12A C13A, 1.16; as for U7C U8G G9A U11C C12U C13U, 1.09.
Next, U8C G9U U10G U11G C13U: 1.27; U8G G9U U10C: 1.51; U8C G9C U10A U11C C12U: 1.21.
With U8G G9C U10C U11C C12G C13G, the “aptazyme ON/OFF ratio” value was found to be 1.09.
As for U7C U8A G9C U10A U11G C12G C13U, the figure is 1.1; as for U7A U8C U10A U11C C12G, 1.1; as for U7A U8C U10G U11G C12U C13U, 1.24.
As for U7G G9C U11C C13A, the “aptazyme ON/OFF ratio” value came to 1.42.
Next, U7G U8G G9U U10A U11A C12A: 1.14; U7G U8G G9U U11G C12U C13A: 1.07; U7G U8C G9C U11G C12U C13U: 1.37.
Consider U8A G9U U10A C12G C13G, for which the “aptazyme ON/OFF ratio” value was determined as 1.28.
Regarding U8G G9A C12U C13U, the “aptazyme ON/OFF ratio” value was 1.25.
As for U7A U8A U11G, the figure is 1.25; as for U7A G9A U10G U11G C13U, 1.09; as for U8G G9C U10A C12A C13U, 1.17.
U7A U8G G9U U10C U11C C13G: the “aptazyme ON/OFF ratio” value amounted to 1.12.
As for U7A G9U U10C C12G C13U, the “aptazyme ON/OFF ratio” value came out at 1.4.
Take U7C U8C G9U U11C C12U C13U: the “aptazyme ON/OFF ratio” value worked out at 1.02.
As for U7A U8G G9C U10C U11C C12U C13G, the figure is 1.06; as for U7C U8A G9C U10A C12A C13A, 1.26; as for U8C G9C U10C U11C C12A, 1.02.
Next, U8C G9A U10C U11C C12U C13G: 1.03.
In the case of U7A G9A U10A U11A C12U C13U, the “aptazyme ON/OFF ratio” value turned out to be 1.39.
U7C U8C G9A U10C U11A C12G: the “aptazyme ON/OFF ratio” value was determined as 1.23.
As for G9U U10A U11C C12G C13A, the figure is 1.3.
Next, U7G U8A G9A U10A C13U: 1.11; U7G U8A U10C U11C C12A C13U: 1.23.
Next, U7C G9A U11G C13G: 1.07.
Take U8G G9A U11C C12U C13U: the “aptazyme ON/OFF ratio” value is 1.13.
As for U7C U8G G9A U10G C12A, the figure is 1.37; as for U8A G9A U10G U11C C13G, 1.05; as for U7G U8C G9U U10C U11C C12U C13U, 1.27.
As for U7G U8A G9A U10C, the figure is 2.73; as for U7A U8C G9C U10G U11C C12G C13G, 1.18.
Take U7G G9U U10G C13G: the “aptazyme ON/OFF ratio” value amounted to 1.21.
As for U7G U8G G9C U10A U11C C12G C13A, the figure is 1.06; as for U7A U8A U10A C12G C13U, 1.23; as for U8A U10C U11G C12G, 1.23.
Regarding U7G U8G G9U U10G U11C C12U C13G, the “aptazyme ON/OFF ratio” value amounted to 1.19.
As for U8C G9A U10G U11C C12A, the figure is 1.23.
In the case of G9A U11A C12U, the “aptazyme ON/OFF ratio” value is 1.83.
With U7A G9C U10G U11A C13G, the “aptazyme ON/OFF ratio” value is 1.06.
As for U7G G9C U10G C12A C13A, the figure is 1.23; as for U8G G9A U10C U11C C12A C13A, 1.05.
Next, U8G U11A C12G C13U: 1.09; U8G G9A U10A U11G C13U: 1.06.

The record behind these values is the RNAGym collection of RNA variant scans (doi:10.1021/acssynbio.7b00057).
